According to patent US20030171289A1 (INSTITUT PASTEUR, published 2003):

What was measured:
[1] = target: T1, KDR (kinase domain receptor, VEGFR-2) expressed on cells (UniProt P35968 20-1356, limits assumed); assay: phage ELISA on CHO-KDR cells, 10^13 pfu/ml
T1 construct: whole, on cells; The same molecule is used for KDR on CHO-KDR cells and for VEGF-R2 on HUV-EC cells; the cells are named under assay; also called KDR/Flk-1; VR2
Procedure: Results are representative of three independent assays.
(§1) Exponentially growing CHO-KDR cells were seeded in 96-well microtiter plates at 7×10⁴ cells/well and left overnight at 37 C. Cells were fixed with paraformaldehyde (4% in PBS) for 15 min at room temperature and washed with PBS. Wells were then filled with PBS-Glycine 0.2%, kept for 15 min at room temperature and then washed with PBS. Phage particles (10¹² or 10¹³/ml) were added to each well and incubated 2 h at room temperature. Wells were washed with PBS and the amount of bound phage was detected with peroxidase-conjugated anti-M13 phage serum (Pharmacia Biotech, Uppsala, Sweden).

[2] = target: T1, KDR (kinase domain receptor, VEGFR-2) …; assay: phage ELISA on fixed CHO-KDR cells
Procedure: as §1

[3] = target: T1, KDR (kinase domain receptor, VEGFR-2) …; assay: displacement of 125I-VEGF165 from CHO-KDR cells
[4] = target: T1, KDR (kinase domain receptor, VEGFR-2) …; assay: displacement of 125I-VEGF165 from CHO-KDR cells, curve fitting (CI50)
[5] = target: T1, KDR (kinase domain receptor, VEGFR-2) …; assay: displacement of 125I-VEGF165 from CHO-KDR cells; remark: listed apart in the source
neuropilin 1 = target: T2, neuropilin 1 (UniProt O14786 22-923, limits assumed); assay: displacement of 125I-VEGF165 from MDA-MB 231 cells (neuropilin 1, no VEGF-R2)
T2 construct: whole, on cells; also called NP 1; NP1
T2 sequence (O14786 22-923 limits assumed): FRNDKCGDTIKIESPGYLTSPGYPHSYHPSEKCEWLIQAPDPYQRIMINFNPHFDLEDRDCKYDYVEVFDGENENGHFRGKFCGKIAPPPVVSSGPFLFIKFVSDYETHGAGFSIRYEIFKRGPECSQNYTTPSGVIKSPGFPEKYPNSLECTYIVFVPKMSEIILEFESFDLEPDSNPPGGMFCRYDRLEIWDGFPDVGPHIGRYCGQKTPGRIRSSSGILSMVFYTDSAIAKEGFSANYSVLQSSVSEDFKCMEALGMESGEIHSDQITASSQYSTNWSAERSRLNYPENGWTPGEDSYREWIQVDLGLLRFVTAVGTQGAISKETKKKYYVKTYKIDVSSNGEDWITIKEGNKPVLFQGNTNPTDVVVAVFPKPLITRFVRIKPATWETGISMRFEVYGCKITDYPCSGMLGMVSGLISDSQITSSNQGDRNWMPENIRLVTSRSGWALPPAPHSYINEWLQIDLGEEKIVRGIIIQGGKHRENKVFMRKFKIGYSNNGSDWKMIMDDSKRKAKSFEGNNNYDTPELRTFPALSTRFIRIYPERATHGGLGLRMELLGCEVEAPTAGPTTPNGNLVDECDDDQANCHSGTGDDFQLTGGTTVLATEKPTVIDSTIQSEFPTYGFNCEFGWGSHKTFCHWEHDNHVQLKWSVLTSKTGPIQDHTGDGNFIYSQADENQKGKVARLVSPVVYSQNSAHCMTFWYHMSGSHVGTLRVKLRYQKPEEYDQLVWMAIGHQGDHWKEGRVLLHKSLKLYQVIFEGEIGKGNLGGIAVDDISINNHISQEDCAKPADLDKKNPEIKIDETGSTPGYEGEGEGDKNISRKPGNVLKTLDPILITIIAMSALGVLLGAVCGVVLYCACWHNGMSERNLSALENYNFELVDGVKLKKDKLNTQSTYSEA

[6] = target: T1, KDR (kinase domain receptor, VEGFR-2) …; assay: competition with 125I-VEGF for binding to CHO-KDR cells
Procedure: (§2) Competition assay of binding to CHO-KDR cells. CHO-KDR cells were seeded in 24-well plates at a density of 5×10⁵ cells/well. After 24 h, subconfluent plates were transferred at 4 C, and all subsequent operations were done at 4 C. […] After 3 h, cells were washed five times with binding buffer and solubilized by the addition of 0.5 M NaOH.

[7] = target: T1, KDR (kinase domain receptor, VEGFR-2) …; assay: competition with 125I-VEGF for binding to CHO-KDR cells, fixed peptide concentration
Procedure: as §2

T1 sequence (P35968 20-1356 limits assumed): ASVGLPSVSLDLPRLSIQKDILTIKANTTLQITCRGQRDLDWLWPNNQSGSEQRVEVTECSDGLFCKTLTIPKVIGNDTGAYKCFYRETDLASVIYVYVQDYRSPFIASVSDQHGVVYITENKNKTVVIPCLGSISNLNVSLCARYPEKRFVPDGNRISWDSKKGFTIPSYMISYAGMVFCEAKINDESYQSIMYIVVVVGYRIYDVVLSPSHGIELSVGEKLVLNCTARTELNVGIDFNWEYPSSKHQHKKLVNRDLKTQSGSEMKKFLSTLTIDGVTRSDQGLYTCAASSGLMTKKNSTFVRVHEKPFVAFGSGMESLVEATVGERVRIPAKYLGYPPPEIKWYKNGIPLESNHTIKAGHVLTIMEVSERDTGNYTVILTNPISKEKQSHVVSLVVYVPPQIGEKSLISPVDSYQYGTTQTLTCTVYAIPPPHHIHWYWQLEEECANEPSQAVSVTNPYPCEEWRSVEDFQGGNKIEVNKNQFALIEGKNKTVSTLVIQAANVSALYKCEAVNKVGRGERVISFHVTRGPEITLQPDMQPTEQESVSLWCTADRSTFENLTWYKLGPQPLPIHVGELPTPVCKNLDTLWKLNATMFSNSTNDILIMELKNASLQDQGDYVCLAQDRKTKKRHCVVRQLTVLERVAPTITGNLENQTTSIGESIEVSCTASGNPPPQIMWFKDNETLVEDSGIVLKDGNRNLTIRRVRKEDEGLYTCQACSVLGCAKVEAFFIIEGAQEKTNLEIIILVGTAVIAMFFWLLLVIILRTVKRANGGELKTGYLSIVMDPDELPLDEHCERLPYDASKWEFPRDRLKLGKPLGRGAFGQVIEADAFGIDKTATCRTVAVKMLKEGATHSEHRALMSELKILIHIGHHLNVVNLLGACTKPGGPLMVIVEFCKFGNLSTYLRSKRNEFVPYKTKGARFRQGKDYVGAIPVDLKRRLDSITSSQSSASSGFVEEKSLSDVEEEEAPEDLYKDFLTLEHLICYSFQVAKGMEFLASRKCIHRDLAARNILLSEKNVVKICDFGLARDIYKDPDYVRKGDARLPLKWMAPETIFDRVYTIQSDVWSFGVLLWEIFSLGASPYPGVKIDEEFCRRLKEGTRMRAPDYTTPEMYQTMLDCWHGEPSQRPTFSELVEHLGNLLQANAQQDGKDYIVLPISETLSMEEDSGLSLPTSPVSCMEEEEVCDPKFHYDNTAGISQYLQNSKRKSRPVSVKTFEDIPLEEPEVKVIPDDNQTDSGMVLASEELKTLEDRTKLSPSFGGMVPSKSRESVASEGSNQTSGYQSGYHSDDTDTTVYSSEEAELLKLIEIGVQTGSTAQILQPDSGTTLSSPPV

B1: phage-displayed peptide K5 (M13 phage clone) (peptide)
chain: HSSLQTP
notes: not shown: M13 phage coat protein of the Ph.D.-7 library
binding result [1]: binds

B2: phage-displayed peptide V3 (M13 phage clone) (peptide)
chain: ANLFKAK
notes: as for B1
binding result [2]: binds

B3: phage-displayed peptide K4 (M13 phage clone) (peptide)
chain: SLPAHAR
notes: as for B1
binding result [1]: binds

B4: phage-displayed peptide K6 (M13 phage clone) (peptide)
chain: YSIPKSS
notes: as for B1
binding result [1]: binds

AAAAAAR (position 1 is already alanine) [V1 analogue A11 (the 6 amino acids upstream to arginine substituted by alanine)]
factor by which the inhibitory efficiency is lowered against V1 [3]: 10 fold

AAWLPPR (Ala scan analogue of ATWLPPR (V1)) [V1 analogue A2]
IC50 [4]: 30.9 µM
Efficiency (% Emax) [5]: 61 % Emax

ATALPPR (Ala scan analogue of ATWLPPR (V1)) [V1 analogue A3]
IC50 [4]: 26.8 µM
Efficiency (% Emax) [5]: 70 % Emax

ATWAPPR (Ala scan analogue of ATWLPPR (V1)) [V1 analogue A4]
IC50 [4]: 60.7 µM
Efficiency (% Emax) [5]: 31 % Emax

ATWLAPR (Ala scan analogue of ATWLPPR (V1)) [V1 analogue A5]
IC50 [4]: 29.1 µM
Efficiency (% Emax) [5]: 65 % Emax

ATWLPAR (Ala scan analogue of ATWLPPR (V1)) [V1 analogue A6]
IC50 [4]: 22.4 µM
Efficiency (% Emax) [5]: 84 % Emax

B5: phage-displayed peptide V5 (M13 phage clone) (peptide)
chain: ILDNYKL
notes: as for B1
binding result [2]: binds

B6: phage-displayed peptide K7 (M13 phage clone) (peptide)
chain: ALQPRYL
notes: as for B1
binding result [1]: binds

B7: phage-displayed peptide V7 (M13 phage clone) (peptide)
chain: YAIMPLV
notes: as for B1
binding result [2]: binds

B8: phage-displayed peptide V6 (M13 phage clone) (peptide)
chain: LPPNPTK
notes: as for B1
binding result [2]: binds

B9: synthetic peptide V1 (ATWLPPR) (peptide)
peptide: ATWLPPR
notes: Synthetic peptide (Neosystem); also called V1 peptide
IC50 [4]: 18.8 µM
IC50 (neuropilin 1): 38 µg/mL
Efficiency (% Emax) [5]: 100 % Emax
IC50 [6]: ~80 µM

B10: phage-displayed peptide V4 (M13 phage clone) (peptide)
chain: YHSSFQA
notes: as for B1
binding result [2]: binds

B11: phage-displayed peptide V2 (M13 phage clone) (peptide)
chain: NPRALNY
notes: as for B1
binding result [2]: binds

B12: phage-displayed peptide K1 (M13 phage clone) (peptide)
chain: YLTMPTP
notes: as for B1
binding result [1]: binds

SLPAHAR (Synthetic peptide (Neosystem)) [synthetic peptide K4 (SLPAHAR)]
binding result [7]: binds

B13: phage-displayed peptide K3 (M13 phage clone) (peptide)
chain: TPHNTVS
notes: as for B1
binding result [1]: binds

B14: phage-displayed peptide K2 (M13 phage clone) (peptide)
chain: WPTPPYA
notes: as for B1
binding result [1]: binds
